Measurements taken from IntAct's records for PubMed 22244754.

B1: Phosphatidylinositol 3,4,5-trisphosphate 5-phosphatase 2 (Homo sapiens), O15357-1 (parent)
chain: MASACGAPGPGGALGSQAPSWYHRDLSRAAAEELLARAGRDGSFLVRDSESVAGAFALCVLYQKHVHTYRILPDGEDFLAVQTSQGVPVRRFQTLGELIGLYAQPNQGLVCALLLPVEGEREPDPPDDRDASDGEDEKPPLPPRSGSTSISAPTGPSSPLPAPETPTAPAAESAPNGLSTVSHDYLKGSYGLDLEAVRGGASHLPHLTRTLATSCRRLHSEVDKVLSGLEILSKVFDQQSSPMVTRLLQQQNLPQTGEQELESLVLKLSVLKDFLSGIQKKALKALQDMSSTAPPAPQPSTRKAKTIPVQAFEVKLDVTLGDLTKIGKSQKFTLSVDVEGGRLVLLRRQRDSQEDWTTFTHDRIRQLIKSQRVQNKLGVVFEKEKDRTQRKDFIFVSARKREAFCQLLQLMKNKHSKQDEPDMISVFIGTWNMGSVPPPKNVTSWFTSKGLGKTLDEVTVTIPHDIYVFGTQENSVGDREWLDLLRGGLKELTDLDYRPIAMQSLWNIKVAVLVKPEHENRISHVSTSSVKTGIANTLGNKGAVGVSFMFNGTSFGFVNCHLTSGNEKTARRNQNYLDILRLLSLGDRQLNAFDISLRFTHLFWFGDLNYRLDMDIQEILNYISRKEFEPLLRVDQLNLEREKHKVFLRFSEEEISFPPTYRYERGSRDTYAWHKQKPTGVRTNVPSWCDRILWKSYPETHIICNSYGCTDDIVTSDHSPVFGTFEVGVTSQFISKKGLSKTSDQAYIEFESIEAIVKTASRTKFFIEFYSTCLEEYKKSFENDAQSSDNINFLKVQWSSRQLPTLKPILADIEYLQDQHLLLTVKSMDGYESYGECVVALKSMIGSTAQQFLTFLSHRGEETGNIRGSMKVRVPTERLGTRERLYEWISIDKDEAGAKSKAPSVSRGSQEPRSGSRKPAFTEASCPLSRLFEEPEKPPPTGRPPAPPRAAPREEPLTPRLKPEGAPEPEGVAAPPPKNSFNNPAYYVLEGVPHQLLPPEPPSPARAPVPSATKNKVAITVPAPQLGHHRHPRVGEGSSSDEESGGTLPPPDFPPPPLPDSAIFLPPSLDPLPGPVVRGRGGAEARGPPPPKAHPRPPLPPGPSPASTFLGEVASGDDRSCSVLQMAKTLSEVDYAPAGPARSALLPGPLELQPPRGLPSDYGRPLSFPPPRIRESIQEDLAEEAPCLQGGRASGLGEAGMSAWLRAIGLERYEEGLVHNGWDDLEFLSDITEEDLEEAGVQDPAHKRLLLDTLQLSK

Variants of: B1
Conditions: with epha2_human EPHA2, P29317
epha2_human EPHA2, P29317, sequence (P29317 whole entry): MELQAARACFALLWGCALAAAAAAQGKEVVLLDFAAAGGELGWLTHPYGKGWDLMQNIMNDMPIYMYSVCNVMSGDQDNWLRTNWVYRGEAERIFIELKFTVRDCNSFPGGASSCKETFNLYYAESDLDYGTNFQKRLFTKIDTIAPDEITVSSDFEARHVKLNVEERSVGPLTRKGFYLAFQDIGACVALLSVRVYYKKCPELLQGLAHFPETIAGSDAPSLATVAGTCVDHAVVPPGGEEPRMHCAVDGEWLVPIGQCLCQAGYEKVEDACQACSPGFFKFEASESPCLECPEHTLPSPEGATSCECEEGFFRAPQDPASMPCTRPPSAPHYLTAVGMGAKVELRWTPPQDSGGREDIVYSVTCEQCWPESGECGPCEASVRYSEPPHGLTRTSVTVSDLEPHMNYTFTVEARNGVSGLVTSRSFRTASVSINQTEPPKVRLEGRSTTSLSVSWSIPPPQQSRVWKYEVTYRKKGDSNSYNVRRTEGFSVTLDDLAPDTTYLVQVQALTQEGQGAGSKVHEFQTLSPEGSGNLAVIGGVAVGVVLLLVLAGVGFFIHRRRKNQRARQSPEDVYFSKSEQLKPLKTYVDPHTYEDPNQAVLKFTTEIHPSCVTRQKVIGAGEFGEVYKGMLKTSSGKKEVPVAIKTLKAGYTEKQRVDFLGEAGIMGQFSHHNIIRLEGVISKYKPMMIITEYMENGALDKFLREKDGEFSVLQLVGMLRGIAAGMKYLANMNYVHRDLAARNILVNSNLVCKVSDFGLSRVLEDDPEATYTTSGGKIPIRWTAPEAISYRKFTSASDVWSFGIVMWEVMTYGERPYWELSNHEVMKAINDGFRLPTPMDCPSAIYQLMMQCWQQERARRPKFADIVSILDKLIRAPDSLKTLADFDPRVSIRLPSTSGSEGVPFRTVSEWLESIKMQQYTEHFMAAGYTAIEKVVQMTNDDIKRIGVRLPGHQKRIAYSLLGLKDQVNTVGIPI

effect of a mutation on the interaction | Variant
disrupting interaction | D1223A;D1224A

Variants of: B1
Conditions: with epha2_human EPHA2, P29317
Remark: another data set of the same source

effect of a mutation on the interaction | Variant
increasing interaction | H1219S
